Tests used:
[1] = target: SARS-CoV-2 (2019-nCoV) Spike RBD-mFc Recombinant Protein (SARS-CoV-2; mouse) (UniProt P0DTC2); assay: time course 0 to 16 h at 37 °C, Western blot
[2] = target: Spike protein on SARS-CoV-2 GFP Reporter Virus Particles (pseudotyped lentivirus), wild-type strain (SARS-CoV-2) (UniProt P0DTC2); assay: cell-based or functional assay
[3] = target: Spike protein on authentic SARS-CoV-2 Nanoluciferase virus (USA/WA1-2020) (SARS-CoV-2) (UniProt P0DTC2); assay: cell-based or functional assay

ACE2-34FSY (soluble human ACE2, amino acids 1 to 740, FSY at H34, C-terminal His x6) (from UniProt Q9BYF1 18-740) (receptor)
apparent second-order rate constant of covalent crosslinking [1]: 123 M⁻¹ s⁻¹

mNb6 dimer with one FFY at position 108 of the N-terminal mNb6 (VHH)
IC50, neutralizing pseudovirus [2]: 1.9 nM
IC50, neutralizing authentic SARS-CoV-2 virus [3]: 0.28 nM

From patent US20240262791A1, “B[…] […] AMINO ACIDS” (priority 2021, published 2024)
